From publication PMC3605331, “Cloning and characterization of a novel cold-active glycoside hydrolase family 1 enzyme with β-glucosidase, β-fucosidase and β-galactosidase activities” (BMC Biotechnology, 2013) come the findings set out here.

For series [1], the system named is T1, O=[N+]([O-])c1ccc(O[C@@H]2O[C@H](CO)[C@@H](O)[C@H](O)[C@H]2O)cc1.
T1 construct: E. coli LMG194; monomer
As to the kind of experiment: purified protein. The series is classed as biochemical, uncultured bacterium. Conditions: 20 mM phosphate buffer, 20°C, substrate 1.0-5.0 mM.

The subject of series [2] is T2, O=[N+]([O-])c1ccccc1O[C@@H]1O[C@H](CO)[C@H](O)[C@H](O)[C@H]1O.
T2 construct: E. coli LMG194; monomer
As to the kind of experiment: purified protein. The format is biochemical, uncultured bacterium. Conditions: 20 mM phosphate buffer, 20°C, substrate 1.0-5.0 mM.

Consider BglMKg (uncultured bacterium), for which, in series [1], the Michaelis constant (Km) is reported as 0.16 ± 0.03 mM, the kcat turned out to be 11.7 ± 0.26 s⁻¹ and the catalytic efficiency (kcat/Km) amounted to 73400 M⁻¹ s⁻¹. Also, in series [2], the Km was 9.04 ± 1.39 mM, the kcat turned out to be 12.4 ± 1.35 s⁻¹ and the kcat/Km amounted to 1370 M⁻¹ s⁻¹.

What is called Km is the concentration of substrate that gives half-maximal velocity. Broadly, the kcat is the number of substrate molecules converted per active site and unit of time at saturation. In general, kcat/Km refers to the turnover number divided by the Michaelis constant.
